Our source for the Kd, koff and kon values is patent publication US20240383984A1 (Genentech, published 2024).

Experiment [1] deals with T1, human FcRH3 (BIACORE analyte) (human, UniProt Q96P31 18-573, limits assumed).
T1 construct: also called huFcRH3
T1 sequence (looked up): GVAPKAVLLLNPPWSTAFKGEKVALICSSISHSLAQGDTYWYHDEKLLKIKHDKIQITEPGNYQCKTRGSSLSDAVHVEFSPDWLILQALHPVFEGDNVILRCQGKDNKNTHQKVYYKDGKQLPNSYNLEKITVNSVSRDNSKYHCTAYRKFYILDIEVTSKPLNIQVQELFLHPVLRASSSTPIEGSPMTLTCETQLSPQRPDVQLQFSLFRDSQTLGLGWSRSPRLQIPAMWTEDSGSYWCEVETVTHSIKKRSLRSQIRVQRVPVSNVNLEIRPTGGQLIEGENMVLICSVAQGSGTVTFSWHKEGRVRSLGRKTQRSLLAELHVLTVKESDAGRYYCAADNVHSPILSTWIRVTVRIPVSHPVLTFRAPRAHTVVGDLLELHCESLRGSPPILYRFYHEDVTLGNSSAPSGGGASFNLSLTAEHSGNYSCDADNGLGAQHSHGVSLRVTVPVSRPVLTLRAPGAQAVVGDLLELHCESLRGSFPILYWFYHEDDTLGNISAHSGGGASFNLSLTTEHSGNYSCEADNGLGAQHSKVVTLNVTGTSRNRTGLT
The experiment in a line: SPR (BIACORE), TDB captured as ligand, FcRH3 as analyte, 25 °C, 1:1 binding model.

Experiment [2] addresses T2, human FcRH5 protein fragment (soluble) (human, UniProt Q96RD9 16-851).
T2 construct: whole entry named; also called soluble human FcRH5; Human FcRH5 (BIACORE analyte)
T2 sequence: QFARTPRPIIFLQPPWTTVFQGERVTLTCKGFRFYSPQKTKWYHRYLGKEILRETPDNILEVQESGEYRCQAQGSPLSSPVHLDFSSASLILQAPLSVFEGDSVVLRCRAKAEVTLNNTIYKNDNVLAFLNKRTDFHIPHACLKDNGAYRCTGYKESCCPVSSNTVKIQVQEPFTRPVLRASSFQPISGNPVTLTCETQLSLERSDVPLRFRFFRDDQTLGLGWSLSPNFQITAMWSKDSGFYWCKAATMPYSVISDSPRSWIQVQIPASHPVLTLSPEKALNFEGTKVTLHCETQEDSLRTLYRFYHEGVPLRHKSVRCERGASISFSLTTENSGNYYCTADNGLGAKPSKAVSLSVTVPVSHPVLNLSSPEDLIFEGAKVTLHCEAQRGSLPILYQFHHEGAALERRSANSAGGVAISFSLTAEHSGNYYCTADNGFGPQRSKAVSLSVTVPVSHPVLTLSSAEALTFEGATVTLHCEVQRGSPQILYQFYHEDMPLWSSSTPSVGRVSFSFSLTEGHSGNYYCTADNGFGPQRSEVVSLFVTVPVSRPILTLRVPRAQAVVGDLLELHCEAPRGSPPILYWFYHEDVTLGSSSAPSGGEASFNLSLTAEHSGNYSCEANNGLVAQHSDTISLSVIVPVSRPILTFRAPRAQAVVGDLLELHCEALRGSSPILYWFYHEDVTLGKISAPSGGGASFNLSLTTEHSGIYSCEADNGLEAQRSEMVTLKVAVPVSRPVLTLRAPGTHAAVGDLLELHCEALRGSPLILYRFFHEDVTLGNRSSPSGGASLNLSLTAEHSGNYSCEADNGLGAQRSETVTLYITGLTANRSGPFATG
The experiment in a line: SPR (BIACORE), TDB captured as ligand, Hu FcRH5 as analyte, 25 °C, 1:1 binding model.

The target of experiment [3] is T3, cynomolgus FcRH5 protein fragment (soluble) (cynomolgus monkey).
T3 construct: whole entry named; also called Cyno FcRH5 (BIACORE analyte)
T3 chain: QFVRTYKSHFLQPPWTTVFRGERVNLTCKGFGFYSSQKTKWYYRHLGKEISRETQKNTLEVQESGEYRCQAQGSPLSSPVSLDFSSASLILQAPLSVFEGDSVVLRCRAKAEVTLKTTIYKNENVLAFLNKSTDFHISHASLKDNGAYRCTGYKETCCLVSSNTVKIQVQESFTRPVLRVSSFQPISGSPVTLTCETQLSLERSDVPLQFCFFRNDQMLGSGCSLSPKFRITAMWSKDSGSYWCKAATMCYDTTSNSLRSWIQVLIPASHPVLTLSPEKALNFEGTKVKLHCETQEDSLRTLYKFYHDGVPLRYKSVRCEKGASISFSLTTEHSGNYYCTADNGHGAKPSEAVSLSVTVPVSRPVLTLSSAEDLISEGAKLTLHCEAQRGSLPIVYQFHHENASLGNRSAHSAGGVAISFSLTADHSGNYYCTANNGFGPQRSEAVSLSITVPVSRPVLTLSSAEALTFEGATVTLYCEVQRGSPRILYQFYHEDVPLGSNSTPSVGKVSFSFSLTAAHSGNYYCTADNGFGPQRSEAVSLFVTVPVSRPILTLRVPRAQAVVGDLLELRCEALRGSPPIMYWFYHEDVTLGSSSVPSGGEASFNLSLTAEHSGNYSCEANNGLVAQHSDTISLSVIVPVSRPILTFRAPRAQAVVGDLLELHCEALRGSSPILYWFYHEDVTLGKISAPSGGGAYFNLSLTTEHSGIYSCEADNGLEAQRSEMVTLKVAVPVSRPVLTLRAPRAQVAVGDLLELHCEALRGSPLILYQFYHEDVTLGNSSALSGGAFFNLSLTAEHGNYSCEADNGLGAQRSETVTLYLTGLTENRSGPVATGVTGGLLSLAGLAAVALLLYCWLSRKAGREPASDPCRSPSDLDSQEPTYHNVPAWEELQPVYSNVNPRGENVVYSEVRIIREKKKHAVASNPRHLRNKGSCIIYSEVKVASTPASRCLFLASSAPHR
The experiment in a line: SPR (BIACORE), TDB captured as ligand, Cyno FcRH5 as analyte, 25 °C, 1:1 binding model.

In experiment [4] the target is T3, cynomolgus FcRH5 protein fragment …. The experiment in a line: SPR (BIACORE), hIgG capture format, 1:1 binding model, monovalent affinity; same numbers as FIG. 10B, Cyno FcRH5 panel. The procedure: Kinetic characterization experiments were carried out (see Table 8). In these experiments, binding of soluble FcRH5 protein fragment to purified antibodies in human TDB antibody format was analyzed at six different non-zero concentrations (a 1:3 dilution series, one concentration injected twice as a replicate). Flow rate was set at 40 μl/min and association and dissociation monitored for 600 s.

B1: 1G7.v85/38E4.v1 TDB (bispecific antibody, V domains shown)
VH 1: EVQLVESGPGLVKPSETLSLTCTVSGFSLTRFGVHWVRQPPGKGLEWLGVIWRGGSTDYNAAFVSRLTISKDNSKNQVSLKLSSVTAADTAVYYCSNHYYGSSDYALDNWGQGTLVTVSS
VL 1: DIQMTQSPSSLSASVGDRVTITCKASQDVRNLVVWFQQKPGKAPKLLIYSGSYRYSGVPSRFSGSGSGTDFTLTISSLQPEDFATYYCQQHYSPPYTFGQGTKVEIK
VH 2: EVQLVQSGAEVKKPGASVKVSCKASGFTFTSYYIHWVRQAPGQGLEWIGWIYPENDNTKYNEKFKDRVTITADTSTSTAYLELSSLRSEDTAVYYCARDGYSRYYFDYWGQGTLVTVSS
VL 2: DIVMTQSPDSLAVSLGERATINCKSSQSLLNSRTRKNYLAWYQQKPGQSPKLLIYWTSTRKSGVPDRFSGSGSGTDFTLTISSLQAEDVAVYYCKQSFILRTFGQGTKVEIK
notes: knob-into-hole TDB; also called 1G7.v85 TDB; 1G7.v85 (TDB format)
Consider B1, for which the Kd in experiment [1] came to 92.4 nM; in experiment [2], 2.35 nM; in experiment [3], 6.76 nM; in experiment [4], 6.76 nM. In addition, the koff in experiment [1] amounted to 0.00741 s⁻¹; in experiment [2], 0.00104 s⁻¹; in experiment [3], 0.000847 s⁻¹; in experiment [4], 0.000847 s⁻¹. The kon in experiment [1] was determined as 80200 M⁻¹ s⁻¹; in experiment [2], 441000 M⁻¹ s⁻¹; in experiment [3], 125000 M⁻¹ s⁻¹; in experiment [4] it was 125000 M⁻¹ s⁻¹.
